{
  "source": "paper PMC11389852",
  "about": "“Developing deprotectase biocatalysts for synthesis†” (Faraday Discussions, 2024)",
  "molecular_target": "the molecule itself",
  "experiment": "SEC; size exclusion chromatography of recombinant Cbz-ase (Fig. S32); conditions not told in the main text",
  "data": [
    {"protein": "Sphingomonas paucimobilis Cbz-ase (amidohydrolase), recombinant (enzyme) MVQPTPTPQSELPGLIARDMEGLMTLYRDLHANPELSLQEVNTAAKLAKRLKAMKFDVTEKVGGTGVVAVMKNGSGPVLLIRADMDGLPVVEQTGLDFASKVRTKTPEGVETGVMHACGHDTHMTAFIETAKLLSSSKDKWKGTLVMILQPAEEVGKGARDMLEDGLYTRFPRPTHAIAFHDAANLQAGVVGYTPGYALANVDSVDIVVKGLGGHGAYPQTTRDPIVLGSRIVTSLQTLVSREQDPQDPAVVTVGSFQAGAKHNIIPDQALLLLTVRSYSDETRAKLIKGIERIARGEAIAAGVPDDKMPVVSVKDEFTPSTYNPPEFAEQMGALLKGHFAEGRVVKTPAVMGGEDFGRFYRADKSINSFIFWVGGVPADKMAAAQAGQITLPSLHSPFWAPEADKVIATASEAMTVLAMDILKKD", "values": [
      {"measurement": "stoichiometry N", "value": 4}
    ]}
  ]
}
